Among the data in patent US5593834 are relative cleavage rate constant (fold kcomp vs (AA)2), binding signal (fold kcomp vs (AA)3) and binding signal (fold kcomp vs (AA)4) values, retold here.

The test system of this data set is AluI restriction endonuclease. The experiment in a line: cleavage_in_vitro.
The mark [1] stands for this setting: 8 mM MgCl2, 2 mM CaCl2, 10 mM Tris pH 7.5.

As to “ATATAGCTATAT (double strand) [(AT)2 12-mer]”, the relative cleavage rate constant (fold kcomp vs (AA)2) (fastest substrate, 8 mM MgCl2, 2 mM CaCl2, 10 mM Tris pH 7.5, 16% glycerol) was 3.02.
Under setting [1], “ATATATAGCTATATAT (double strand) [(AT)3 16-mer]” yielded a binding signal (fold kcomp vs (AA)3) of 2.95.
As for “ATATATATAGCTATATATAT (double strand) [(AT)4 20-mer]”, the binding signal (fold kcomp vs (AA)4) under setting [1] was determined as 3.
